Assays:
[1] = target: Fluorescently labelled MukB (MukB-Cy5) (E. coli) (UniProt P22523); test: single-molecule TIRF fluorescence intensity counting; MukB-Cy5 on 'bulbs' of doubly tethered λDNA; 10 nM MukB incubated with DNA at 50 mM NaCl until compacted, then 10 nM MukF, 20 nM MukE and 1 mM ATP-Mg2+ flowed in; number from the intensity against that of a single MukB bound to glass; 107 DNAs
[2] = target: MukB^EQ-Cy5 (EQ MukB mutant, binds but cannot hydrolyse ATP) (E. coli) (UniProt P22523); test: single-molecule TIRF fluorescence intensity counting; MukB^EQ-Cy5 with MukE, truncated monomeric MukF (MonoMukF) and ATP-Mg2+ on doubly tethered λDNA, 150 mM NaCl buffer, ~1 pN of applied force; 164 clusters

| stoichiometry N [1] | stoichiometry N [2] | Substance |
| --- | --- | --- |
| 2 to 4 | – | Fluorescently labelled MukB (MukB-Cy5) (from UniProt P22523 1-1486) (natural protein) |
| – | 2 | MukB^EQ-Cy5 (EQ MukB mutant, binds but cannot hydrolyse ATP) (from UniProt P22523 1-1486) (natural protein) |

From publication PMC9234588
